Source: PMC3085272
pKd: −log10 of the molar value.

Biological target: Rac1-GMPPNP (UniProt P63000)
Assay: equilibrium dialysis

Q: With “ΔWRC (VCA-deleted WRC, containing WAVE1(1-186)) (from UniProt Q7L576;Q9Y2A7;Q92558;Q9NYB9;Q8WUW1) (complex)” as the substance, how does the pKd read?
A: 5.70 to 6.00
